Two substances from patent publication USRE43497 can be followed below.

Assay in all cases: cell-based or functional assay
The target in one experiment is GAL4-AD (UniProt P04386).
Experiment [1] deals with Jab1-AD (GAL4 activation domain fusion with human p38^Jab1 amino acids 20-335) (human) (UniProt Q92905).
A further experiment has as its target SV40-AD.

Sequence of GAL4-AD (P04386 768-881 limits assumed): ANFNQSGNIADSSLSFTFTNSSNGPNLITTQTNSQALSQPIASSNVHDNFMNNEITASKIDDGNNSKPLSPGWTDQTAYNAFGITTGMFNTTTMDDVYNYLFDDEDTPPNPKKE
Sequence of Jab1-AD (GAL4 activation domain fusion with human p38^Jab1 amino acids 20-335) (human) (Q92905 20-334 limits assumed): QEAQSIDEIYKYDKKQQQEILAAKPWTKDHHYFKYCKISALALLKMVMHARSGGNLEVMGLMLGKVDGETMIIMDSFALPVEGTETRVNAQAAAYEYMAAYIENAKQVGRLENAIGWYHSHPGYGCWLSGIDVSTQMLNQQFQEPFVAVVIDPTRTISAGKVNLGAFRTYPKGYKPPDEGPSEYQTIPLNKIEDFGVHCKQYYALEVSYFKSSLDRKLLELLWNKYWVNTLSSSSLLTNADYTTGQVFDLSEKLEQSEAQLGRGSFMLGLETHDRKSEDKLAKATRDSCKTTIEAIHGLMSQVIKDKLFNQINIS

For GAL4-BD (from UniProt P04386 1-147), the beta-galactosidase activity, liquid media assay (yeast two-hybrid) with GAL4-AD stood at 0.1 Miller units; in experiment [1] it was 0.3 Miller units. As to p53-BD, the beta-galactosidase activity, liquid media assay (yeast two-hybrid) in the experiment with SV40-AD was 99 Miller units.
